Test results reported in patent US11673947B2, “Target tissue-specific antigen-binding molecule” (Chugai Seiyaku Kabushiki Kaisha, priority 2012, dated 2023).
Changes are numbered by the printed parent chain. One block for each molecule: values may come before it.

Experiments:
[1] = Biacore T200, binding of D12 to ADP; conditions: 50 mM Tris-HCl, 500 mM NaCl, 0.01% Tween20, 15° C.
Description: (§1) Biacore T200 (GE Healthcare) was used to analyze the interaction of D12, in which the constant region of IgG is linked to the variable region of clone ATNLSA1-4_D12 with ATP- and adenosine-binding activity, in antigen-antibody reaction. Sensor chip CM5 or CM4 (GE Healthcare) was immobilized with an appropriate amount of protein A (Life technologies) by amine coupling. The antibody of interest was captured by the chip to allow interaction with ATP (Wako), adenosine (Wako), or ADP (adenosine diphosphate) (Wako) as an antigen. The running buffer used was 50 mM Tris-HCl (Takara, T903), 500 mM NaCl, 0.01% (w/v) Tween20. The antigen was allowed to interact for 30 seconds at a flow rate of 30 μl/min, and was dissociated for 30 seconds. The interaction with the antigen was assessed at 15° C. The antigen was diluted using the same running buffer.
(§2) The dissociation constant KD (M) was calculated based on the association rate constant ka (1/Ms) and dissociation rate constant kd (1/s), both of which are kinetic parameters calculated from the sensorgram obtained by the measurement. Alternatively, the dissociation constant KD (M) was calculated using steady state analysis. Each parameter was calculated using the Biacore T200 Evaluation Software (GE Healthcare).

[2] = Biacore T200, binding of D12 and variants to adenosine (steady state, Formula 2); conditions: 15° C., specific response with/without 20 μmol/l ADP
Description: as §1, §2
In addition, the binding response was separately assessed in the presence of 20 μmol/l ADP. […]

[3] = Competitive phage ELISA, inhibition of binding to biotin-labeled antigens by ATP; conditions: ATP from an equal amount up to 10000 times that of the antigen
Protocol: ATNLSA1-4_D12 and PF1 were each diluted with TBS and subjected to ELISA by the following procedure.
A StreptaWell 96 microtiter plate (Roche) was coated at room temperature for one hour with 100 μl of TBS containing biotin-labeled antigens (a mixture of 5′-adenosine-PEG-biotin and ATP-PEG-biotin). After the antigens were removed by washing each well of the plate with TBST, the wells were blocked with 250 μl of 2% skim milk/TBS for one hour or more. 2% skim milk/TBS was removed, and then the prepared, purified phages were added to each well. The plate was allowed to stand at room temperature for one hour to allow binding of the antibody-displaying phages to the antigens in each well. […] For the competition of the immobilized antigen with ATP, the plate was allowed to stand at room temperature for one hour. Then, after TBST wash, an HRP-conjugated anti-M13 antibody (Amersham Pharmacia Biotech) diluted with TBS was added to each well. The plate was incubated for one hour. Following TBST wash, the TMB single solution (ZYMED) was added to each well. The chromogenic reaction in the solution of each well was terminated by adding sulfuric acid. Then, the developed color was assessed by measuring absorbance at 450 nm.

[4] = Phage ELISA, binding to 2′-adenosine-PEG-biotin, 5′-adenosine-PEG-biotin and ATP-PEG-biotin
Protocol: From single colonies of E. coli obtained by panning as described in the Example above, culture supernatants containing phages were collected according to a conventional method (Method Mol. Biol. (2002) 178, 133-145). The collected culture supernatants were treated by ultrafiltration using NucleoFast 96 (MACHERY-NAGEL). 100 μl of the culture supernatants were added to each well of NucleoFast 96 and centrifuged at 4500 g for 45 minutes to remove flow through. After addition of 100 μl of H2O, the NucleoFast 96 was washed by centrifugation at 4500 g for 30 minutes. After addition of 100 μl of TBS, the NucleoFast 96 was allowed to stand for five minutes at room temperature. Then, phage suspensions were collected from the supernatants.
Purified phages, to which TBS was added, were subjected to ELISA by the following procedure. […] Then, the developed color was assessed by measuring absorbance at 450 nm.
Next, for the purpose of confirming to which antigen of 2′-adenosine-PEG-biotin, 5′-adenosine-PEG-biotin, and ATP-PEG-biotin these clones have binding ability, the purified phages diluted with TBS were subjected to ELISA by the following procedure. […] Then, the developed color was assessed by measuring absorbance at 450 nm.

[5] = Biacore T200, binding of D12 and ATNLSA1-4_D12 variants to ATP; conditions: 50 mM Tris-HCl, 500 mM NaCl, 0.01% Tween20, 15° C.
Description: as §1, with “The antigen was allowed to interact for 30 seconds at a flow rate of 30 μl/min, and was dissociated for 30 seconds.” left out, “The antigen was diluted using the same running buffer.” left out
as §2
Each variant expressed and purified by the method described in Example 7-1 was assayed for its ATP and adenosine binding by the same method as described in Example 7-6 using Biacore. Based on the assay result, the affinity of each variant for ATP was calculated as a KD value. […]

Tm measurement by DSC = assay type: physicochemical
Protocol: Then, for the purpose of improving antibody stability, the framework sequence of ATNLSA1-4_D12 was restored to the germ line sequence VH3-21 by introducing into the framework sequence of ATNLSA1-4_D12, alterations Gln01Glu, Gln05Val, Asp10Gly, Asn30Ser, Leu48Val, and Asn58Tyr (numerals represent Kabat numbers). ATNLSA1-4_D12 variants expressed and purified by the method described in Example 7-1 were measured for their Tm by DSC. DSC measurement was carried out by a method known to those skilled in the art.

[6] = system: CHO/hIL6R (CHO cells expressing human IL-6 receptor); assay: ADCC (chrome release) with NK92-CD16(V) as effector cells against CHO/hIL6R cells; assay type: cell-based; conditions: in the presence of ATP, various antibody concentrations; variants with increased effector activity
Protocol: The obtained antibodies 6RAD2C1-4_030 and 6RAD2C1-4_011 were assessed by the method described below to test whether ADCC activity against hIL-6R-expressing cells is mediated via hIL-6R binding of the antibodies in the presence of adenosine triphosphate (ATP). […] At various antibody concentrations in the presence or absence of ATP, 6RAD2C1-4_030, 6RAD2C1-4_011, and MRA were assessed for the ADCC activity to hIL-6R-expressing cells according to the method described in Reference Example 3.
Antibodies that bind to antigens in an ATP-dependent manner were assessed for their ADCC activity against antigen-expressing cells at various antibody concentrations according to the method described below. […]
ADCC activity was assessed based on the specific chrome release rate determined by chrome release assay. […] 100 μl of culture supernatant from each well of the plate was measured for radioactivity using a gamma counter. The specific chrome release rate was determined based on the equation described in Reference Example 1.

- Kd [1]: 0.25 µM
- Kd [2]: 1100 µM
- Kd [5]: 8.5 µM
B1: ATNLSA1-4_D12: ATP/adenosine-binding antibody from human antibody library; variable regions SEQ ID NOs: 46 and 47 (antibody, listed as Homo sapiens, V domains shown)
VH: QVQLQESGGDLVKPGGSLRLSCAASGFTFNTYTMNWVRQAPGKGLEWLSSISSRSNYINYADSVKGRFTISRDNAKNSLYLQMNSLRAEDTAVYYCARFGRKGDLNWVFDYWGQGTLVTVSS
VL: QSALTQPPSASGSPGQSVTISCTGTSSDVGGYNYVSWYQQHPGKAPKLMIYEVSKRPSGVPDRFSGSKSGNTASLTVSGLQAEDEADYFCSSYAGSNNVVFGGGTKLTVL
- binding to antigen in the presence of ATP [3]: inhibited in an ATP concentration-dependent manner
- binding to biotin-labeled antigens (phage ELISA) [4]: had the ability to bind to both 5′-Adenosine-PEG-biotin and ATP-PEG-biotin
- Tm (Tm measurement by DSC): 74.37 °C

B2: 6RAD2C1-4_011: antibody that binds to hIL-6R in the presence of ATP; variable regions SEQ ID NOs: 82 and 83 (antibody, listed as Homo sapiens, V domains shown)
VH: EVQLVESGGDLVKPGGGLRLSCAASGFTFSGHTMNWVRQAPGKGLEWVSSISSRSSYIYYADSVKGRFTISRDNAKNSLYLQMNSLRAEDTAVYYCARYGALGQMNWVFDYWGQGTLVTVSS
VL: B1 VL with S17T, S27T, G31D, E52S, Y93R, A94S, G95S, N97M, V100L
- ADCC activity against hIL-6R-expressing cells [6]: antibody concentration-dependent ADCC activity

B3: 6RAD2C1-4_030: antibody that binds to hIL-6R in the presence of ATP; variable regions SEQ ID NOs: 119 and 120 (antibody, listed as Homo sapiens, V domains shown)
VH: B2 VH with G31S, H32Y, S56G, I58A, Y99F, G103N, Q104T, M105L
VL: QSALTQPPSASGSPGQTVTISCTGTSTDVGDYNYVSWYQQHPGKAPKLMIYQVSKKPSGVPDRFSGSKSGNTASLTVSGLQAEDEADYFCSTRTANAGVLFGGGTKLTVL
- ADCC activity against hIL-6R-expressing cells [6]: antibody concentration-dependent ADCC activity
